Results: publication PMC4536996, “Molecular mechanisms of human IRE1 activation through dimerization and ligand binding” (Oncotarget, 2015)

Target: the molecule itself
Assay: crystal structure; apo-hIRE1 (no nucleotide), hanging-drop vapor diffusion, 18-20% PEG3350, 0.2 M sodium malonate, Bis-Trispropane pH 6.5, 18°C; 2 molecules in the asymmetric unit

B1: cytoplasmic region of human IRE1 (residues 547-977) (domain or fragment, UniProt O75460 547-977, looked up)
chain: GSSPSLEQDDGDEETSVVIVGKISFCPKDVLGHGAEGTIVYRGMFDNRDVAVKRILPECFSFADREVQLLRESDEHPNVIRYFCTEKDRQFQYIAIELCAATLQEYVEQKDFAHLGLEPITLLQQTTSGLAHLHSLNIVHRDLKPHNILISMPNAHGKIKAMISDFGLCKKLAVGRHSFSRRSGVPGTEGWIAPEMLSEDCKENPTYTVDIFSAGCVFYYVISEGSHPFGKSLQRQANILLGACSLDCLHPEKHEDVIARELIEKMIAMDPQKRPSAKHVLKHPFFWSLEKQLQFFQDVSDRIEKESLDGPIVKQLERGGRAVVKMDWRENITVPLQTDLRKFRTYKGGSVRDLLRAMRNKKHHYRELPAEVRETLGSLPDDFVCYFTSRFPHLLAHTYRAMELCSHERLFQPYYFHEPPEPQPPVTPDAL
stoichiometry N: 2
